{
  "source": "paper PMC3632608",
  "key": {"[1]": {"target": "Recombinant human β-synuclein (human) (UniProt Q16143)", "experiment": "SEC; Superose 12, 50 mM Tris/HCl pH 7.4, 100 mM NaCl, 1 mM EDTA, 5% glycerol, 0.5 ml/min; 20-50 µg per run; in vitro aged α-synuclein, β-synuclein or co-incubated mixtures; mass estimated from gel filtration standards"}, "[2]": {"target": "A53T mutant α-synuclein (human) (UniProt P37840)"}, "[3]": {"target": "Recombinant human α-synuclein (human) (UniProt P37840)"}, "[4]": {"target": "A30P mutant α-synuclein (human) (UniProt P37840)"}},
  "data": [
    {"substance": "Recombinant human β-synuclein (from UniProt Q16143 1-134) (natural protein)", "values": [
      {"measurement": "stoichiometry N", "setting": "[1]", "result": 4},
      {"measurement": "reduction of isoaspartate formed in A53T α-synuclein on co-incubation with approximately equimolar β-synuclein, 0-20 days of in vitro ageing (methanol diffusion assay); value after 20 days", "setting": "[2]", "result": 47.9, "unit": "%"},
      {"measurement": "reduction of isoaspartate formed in native α-synuclein on co-incubation with approximately equimolar β-synuclein, 0-20 days of in vitro ageing (methanol diffusion assay); value after 20 days", "setting": "[3]", "result": 72.2, "unit": "%"},
      {"measurement": "reduction of isoaspartate formed in A30P α-synuclein on co-incubation with approximately equimolar β-synuclein, 0-20 days of in vitro ageing (methanol diffusion assay); value after 20 days", "setting": "[4]", "result": 84.3, "unit": "%"}
    ]}
  ]
}
